# Where two headings read alike, the source gives them in different places.
# Assays:
# [1] = system: AECII; format: cell-based, mice
# [2] = system: IL-6, TNFα, KC, MCP-1; format: in vivo
# [3] = system: cytokines and chemokines; test: Multiplex analysis of inflammatory mediators in BALF and serum; format: in vivo, DBA/2J mice
# [4] = system: AECII; test: Flow cytometry of dispersed lung cells (pro SP-C, Ki67, IAV-NP) after in vivo treatment; design: species or system DBA/2J mice
molecule,measurement,setting,value
"KGF: keratinocyte growth factor, a potent pulmonary epithelial mitogen; cognate receptor FGFR2 (protein, UniProt P21781 32-194, looked up) Fibroblast growth factor 7: CNDMTPEQMATNVNCSSPERHTRSYDYMEGGDIRVRRLFCRTQWYLRIDKRGKVKGTQEMKNNYNIMEIRTVAVGIVAIKGVESEFYLAMNKEGKLYAKKECNEDCNFKELILENHYNTYASAKWTHNGGEMFVALNQKGIPVRGKKTKKEQKTAHFLPMAIT",MCF per cell for IAV-NP,[1],returning to baseline
same,"mean fluorescence intensity of IAV-NP staining, Ki67 high vs Ki67 low",[1],greater in the Ki67 high (proliferating) than the Ki67 low (nonproliferating) population
same,peak in expression of viral protein M1 (Western blot),[1],occurred in AECII that were isolated 48 h after in vivo KGF challenge
same,percentage of AECII infected after ex vivo IAV incubation,[1],remained near baseline levels
same,"percentage of AECII infected after ex vivo IAV incubation, time course",[1],highest in cells harvested 48 h after in vivo KGF treatment
same,percentage of AECII proliferating (Ki67),[1],returned to near baseline
same,"percentage of AECII proliferating (Ki67), time course",[1],peaked at 48 h
same,"MCF per cell for IAV-NP, time course","[1]; ex vivo IAV 18 h, peak",peaking in cells harvested at 48 h post KGF
same,"TNFα increase, KGF alone vs naive controls","[2]; KGF treatment alone, 48 and 72 h postchallenge",two- to threefold increases
same,"cytokine responses, KGF alone (other than TNFα)","[2]; KGF treatment alone, no IAV, any point",no effect
same,"enhancement of IAV-induced IL-6, TNFα, KC, MCP-1 levels","[2]; whole-lung homogenates, 48 and 72 h, KGF coadministration with IAV",10-50%
same,"BAL IP10, MCP-5, TNFα, MIG, IL-6, MCP-1, G-CSF, M-CSF, IFNγ responses relative to PBS/IAV","[3]; BALF, 72 h after IAV with 5 mg/kg KGF i.t.",modestly augmented
same,"serum inflammatory response to IAV (especially IP10, TNFα, MCP-1, IFNγ)","[3]; serum, IAV with 5 mg/kg KGF i.t.",augmented the inflammatory response
same,fold increase in percentage of AECII proliferating vs PBS,[4]; 48 h after i.t. KGF 5 mg/kg,more than sevenfold
same,percentage of AECII proliferating based on Ki67 staining,"[4]; 48 h after i.t. KGF 5 mg/kg, PBS-only mice 2%",14%
same,"percentage of AECII infected (IAV-NP), time course","[4]; KGF 24, 48 or 120 h before 50,000 particles i.t. IAV, peak",peaked in dispersed lung cells from mice that had been pretreated with KGF 48 h before infection
same,"mean channel fluorescence of IAV-NP (viral burden per cell), time course","[4]; KGF 24, 48 or 120 h before IAV, peak",peaking in cells harvested at 48 h after KGF
same,percentage of AECII infected (IAV-NP),[4]; KGF 120 h before inoculum,remained near PBS control levels
same,mean channel fluorescence of IAV-NP (viral burden per cell),"[4]; mouse, in vivo",remaining close to PBS control levels
same,percentage of AECII infected vs PBS control mice,"[4]; mouse, in vivo",significantly greater
same,percentage of AECII proliferating (Ki67),"[4]; mouse, in vivo",remaining similar to PBS control levels
same,"percentage of AECII proliferating (Ki67), time course","[4]; mouse, in vivo",peaking in cells isolated from mice that had been dosed with KGF 48 h before PBS challenge
